Laboratory results: the supplement of paper PMC9876800

System: peptide library, one residue held at a place counted from the S/T acceptor
Experiment: relative phosphorylation of the sub-library (ratio to the mean residue at this position); higher = residue favoured
Summary of the method: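 Relative sub-library phosphorylation is the ratio of each sub-library's signal to the mean residue at that position. The signal came from phosphorimaging of spots on streptavidin membranes, quantified by densitometry, after purified recombinant kinases reacted with biotinylated degenerate peptide sub-libraries in 384-well plates. Reactions held 50 μM peptide and 50 μM ATP spiked with γ-32P-ATP for 90 min under kinase-specific conditions.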

Chain of PLK2, construct: aa57-360, human (Q9NYY3 57-360, looked up): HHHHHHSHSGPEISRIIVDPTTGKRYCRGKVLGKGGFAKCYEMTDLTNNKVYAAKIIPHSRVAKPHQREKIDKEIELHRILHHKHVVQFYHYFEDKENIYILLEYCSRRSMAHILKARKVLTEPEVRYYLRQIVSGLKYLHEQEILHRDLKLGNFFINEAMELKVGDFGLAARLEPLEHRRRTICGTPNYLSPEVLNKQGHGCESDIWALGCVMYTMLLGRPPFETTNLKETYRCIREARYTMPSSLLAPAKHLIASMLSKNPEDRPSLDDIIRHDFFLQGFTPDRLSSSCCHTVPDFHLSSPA

PLK2, construct: aa57-360, human (from UniProt Q9NYY3)
relative phosphorylation
Settings	at +1	at +2	at +3	at +4	at -1	at -2	at -3	at -4	at -5
A fixed	0.569	0.927	0.69	0.793	0.879	0.734	0.559	0.825	0.975
D fixed	0.52	2.18	2.27	1.98	2.51	3.13	1.77	1.74	1.46
E fixed	0.87	2.23	2.59	2.2	1.61	2.35	7.3	2.19	1.53
F fixed	3.75	0.919	0.861	0.916	0.658	0.508	0.751	1.06	1.37
G fixed	0.529	0.54	0.81	0.842	0.587	0.655	0.583	0.9	1.25
H fixed	0.628	0.999	0.914	0.988	1.16	0.8	0.625	0.888	1.11
I fixed	1.3	0.971	0.835	0.974	0.697	0.558	0.318	0.888	0.806
K fixed	0.452	0.227	0.358	0.442	0.634	0.3	0.292	0.638	0.722
L fixed	1.02	0.707	0.874	0.982	0.701	1.23	0.608	1.11	0.844
M fixed	1.78	1.01	0.85	0.869	0.874	1.24	0.763	0.866	0.842
N fixed	0.567	0.99	1.05	0.866	1.24	1.88	0.687	1	0.955
P fixed	0.159	0.532	0.609	1.07	1.46	0.736	0.482	0.928	0.955
Q fixed	1.2	0.752	0.987	0.877	0.833	0.883	0.717	0.846	0.692
R fixed	0.691	0.438	0.396	0.441	0.79	0.465	0.333	0.609	0.694
V fixed	0.994	0.841	0.765	0.554	0.899	0.391	0.269	0.775	0.757
W fixed	0.683	1.31	1.08	1.24	0.469	0.458	0.48	0.907	0.977
Y fixed	1.28	1.44	1.05	0.968	0.997	0.676	0.459	0.845	1.06
pThr fixed	1.33	2.29	2.39	3.26	1.07	1.08	1.05	1.68	1.04
pTyr fixed	1.4	11	2.89	3.61	4.55	0.912	1.2	1.6	1.63

PRKCH, construct: Full length, human (from UniProt P24723)
relative phosphorylation
Settings	at +1	at +2	at +3	at +4	at -1	at -2	at -3	at -4	at -5
A fixed	0.536	0.49	0.738	0.933	1.07	0.893	0.78	1.1	1.19
D fixed	0.187	0.163	0.449	0.528	0.548	0.496	0.423	0.718	0.638
E fixed	0.282	0.15	0.547	0.496	0.55	0.467	0.469	0.799	0.721
F fixed	1.78	0.68	0.858	0.658	0.632	0.721	0.813	0.773	1.23
G fixed	0.374	0.299	1.06	0.926	1.42	1.13	0.776	1.12	0.955
H fixed	0.661	1.39	1.28	1.45	0.981	1.24	1.39	1.15	1.12
I fixed	1.47	0.622	0.754	0.632	0.397	0.405	0.444	0.614	0.818
K fixed	1.86	3.28	2.09	2.44	1.98	1.9	1.88	1.72	1.53
L fixed	1.19	0.561	0.883	0.64	0.733	0.438	0.551	0.66	0.852
M fixed	1.43	0.745	0.785	0.708	0.929	0.592	0.695	0.869	0.722
N fixed	0.548	0.668	0.974	1.04	1.36	1.32	0.995	1.06	0.97
P fixed	0.286	0.212	0.554	1.11	1.11	0.736	0.821	1.05	0.798
Q fixed	1.12	0.583	0.839	0.986	0.999	1.28	0.842	0.927	0.878
R fixed	2.06	4.08	2.24	1.99	2.16	3.2	4.05	1.67	1.75
V fixed	1.31	0.596	0.754	0.715	0.593	0.447	0.466	0.716	0.847
W fixed	0.831	0.669	1.05	1	0.61	1.02	0.786	1.18	1.12
Y fixed	1.07	1.81	1.16	0.753	0.94	0.696	0.824	0.878	0.857
pThr fixed	0.833	0.36	0.641	0.773	0.411	0.691	0.644	0.881	0.699
pTyr fixed	0.574	0.268	0.811	0.593	0.751	0.641	0.847	0.869	1.09
